Source: patent US11926665B2, “Methods of treating cancer with anti-TIM-3 antibodies” (TESARO, INC., priority 2017, dated 2024)

Experiments:
[1] = system: PARP activity; details: various cell lines, DNA damage by hydrogen peroxide, cited from earlier work
[2] = Phase 1 dose escalation, safety and tolerability; assay type: in vivo
Procedure: The study comprises several parts: dose escalation and cohort expansion. Part 1a of the study (dose escalation) is intended, inter alia, to evaluate the safety, PK, and PDy profile, tolerability and anti-cancer effect of the anti-TIM-3 antibody. […] Part 1a could also comprise the testing of a “flat” dose, or a specific fixed number of milligrams of antibody (as opposed to the weight based dosing mg/kg). Flat doses could range from 200 mg to 1500 mg of anti-TIM-3 antibody. Part 1b of the study (combination with PD1 dose escalation cohorts) is intended, inter alia, to evaluate the safety, PK, and PDy profile, tolerability and anti-cancer effect of the anti-TIM-3 antibody in combination with an anti-PD-1 antibody wherein the anti-TIM-3 antibody is administered as a dose escalation. […] The anti-PD-1 antibody can be dosed at an approved dose and schedule for a marketed agent and on a weight basis at a dose of 3 or 10 mg/kg Q2W or Q3W or on a flat dose basis of 500 mg antibody Q2W or Q3W by using a modified 3+3 design.
Primary endpoints include determining the safety and tolerability of TSR-022 by Common Terminology Criteria for Adverse Events (CTCAE v4) and to determine the recommended phase 2 dose (RP2D) and schedule for monotherapy and combination with an anti-PD-1 antibody. […]

[3] = Phase 1 study, serum pharmacokinetics after first dose; assay type: in vivo; details: patients, first dose 0.03-10 mg/kg, monitored for two weeks, FIG. 6A
Source text: (§1) This example describes a multicenter, open-label, first-in-human Phase 1 study evaluating a TIM-3 binding agent (an anti-TIM-3 antibody), in patients with tumors. Specifically the dosage effects in patients with advanced solid tumors treated with a particular TIM-3 binding agent. A TIM-3 binding agent (TSR-022) as described in the present study comprises a humanized monoclonal anti-TIM-3 antibody comprising a heavy chain whose amino acid sequence comprises SEQ ID NO: 3 and a light chain whose amino acid sequence comprises SEQ ID NO:4 are evaluated. This anti-TIM-3 antibody utilizes a human IGHG4*01 heavy chain gene, and a human IGKC*01 kappa light chain gene, as scaffolds. Further, there is a single Ser to Pro point mutation in the hinge region of the IgG4 heavy chain at the canonical S228 position.
The study comprises several parts: dose escalation and cohort expansion. Part 1a of the study (dose escalation) is intended, inter alia, to evaluate the safety, PK, and PDy profile, tolerability and anti-cancer effect of the anti-TIM-3 antibody. […]
After patients received the first dose of TSR-022 at various levels (0.03-10 mg/kg), the TSR-022 concentration in serum was monitored for two weeks and the pharmacokinetic (PK) behaviors were characterized.

[4] = system: advanced or metastatic solid tumors; assay: Phase 1 dose escalation, best tumor response; assay type: in vivo, human
Source text: as §1
Patients were included with histologically or cytologically proven advanced (unresectable) or metastatic solid tumor and who had disease progression after treatment with available therapies that are known to confer clinical benefit or who are intolerant to other known treatment(s).
The study comprises several parts: dose escalation and cohort expansion. Part 1a of the study (dose escalation) is intended, inter alia, to evaluate the safety, PK, and PDy profile, tolerability and anti-cancer effect of the anti-TIM-3 antibody. A modified 3+3 design was used for dose escalation at 0.03 mg/kg, 0.1 mg/kg, 0.3 mg/kg, 1.0 mg/kg, 3 mg/kg, and 10 mg/kg and higher every 2 weeks (Q2W) with the dose of the TIM-3 antibody not to exceed 20 mg/kg. […]
The best response observed was also evaluated in efficacy evaluable patients (e.g., patients who received at least two doses and either had at least one post-baseline assessment or had discontinued treatment due to clinical progression prior to post-baseline tumor assessment. Stable disease (5/25 patients) and partial response (1/25 patients at 10 mg/kg) were observed as the best response in patients with rectal, thyroid, neuroendocrine, or head and neck cancer, or with soft tissue sarcoma.

[5] = target: T1, TIM-3 (Homo sapiens, UniProt Q8TDQ0); assay: TIM-3 receptor occupancy on circulating CD14+ monocytes by flow cytometry; assay type: in vivo
T1 construct: endogenous in cells; host or cells: circulating CD14+ monocytes in patients' whole blood
Procedure: TIM-3 receptor occupancy (RO) by TSR-022 on circulating CD14^+ monocytes was measured by flow cytometry. Briefly, whole blood samples from patients treated with TSR-022 were stained with anti-CD14, a non-competing anti-TIM-3 antibody (indicating total TIM-3) and a competing anti-TIM-3 antibody (indicating unbound or free TIM-3). TIM-3 occupancy by infused TSR-022 was estimated as the ratio of free TIM-3 on CD14+ cells to the total TIM-3 on CD14+ cells. A decrease in the ratio indicates an increase in TSR-022 bound TIM-3 receptor. To measure binding in the RO assay, whole blood was collected from patients at baseline (Day 1 predose), 48 hours following the first dose (Day 3) and prior to the second dose (Day 15 predose) for the Q2W schedule. […] Samples for occupancy measurement on the Q3W schedule were collected as follows: Day 1 predose, Day 5, Day 15 and Day 22. Ex vivo TSR-022 saturated healthy donor samples (“sat”) as well as controls lacking detection antibodies (“Bkgd”) were included as controls.
FIGS. 7A-7C respectively show receptor occupancy studies of the anti-TIM-3 antibody (TSR-022) administered at doses of 1 mg/kg (FIG. 7A), 3 mg/kg (FIG. 7B), and 10 mg/kg (FIG. 7C) every two weeks (Q2W). All samples were pre-dose, with occupancy measured after a single dose on day 1. The occupancy ratio (free TIM-3:total TIM-3) is determined at various time points (for example, timepoints can include day 1, day 3, day 15, day 22, and day 29). The receptor occupancy is maximal on day 3 across doses of TSR-022.

Compound | IC50 ([1]; read-out: IC50, PARP activity in cells) | IC90 ([1]; read-out: inhibitory concentration at 90% of control (IC90), PARP activity in cells) | MTD ([2]; dose escalation continued to 1.0 mg/kg Q2W) | tolerability ([2]; monotherapy, patients) | PK behavior, serum concentration versus time [3] | stable disease as best response ([4]; efficacy evaluable patients, monotherapy Part 1a, 0.03-10 mg/kg Q2W) | partial response as best response ([4]; efficacy evaluable patients, monotherapy, at 10 mg/kg) | tumor reduction ([4]; one patient with metastatic leiomyosarcoma, 3 doses at 10 mg/kg, pending confirmatory imaging) | day through which maximal occupancy is maintained ([5]; 3 mg/kg, single dose on day 1, FIG. 7B) | maintenance of maximal occupancy ([5]; 10 mg/kg, through the days of available data, versus 3 mg/kg, FIG. 7C) | receptor occupancy compared between regimens ([5]; 100 mg Q3W versus 3 mg/kg Q2W) | target coverage in the periphery (receptor occupancy) ([5]; 100 mg flat dose Q3W, single dose on day 1, FIG. 10) | receptor occupancy (RO) ([5]; 300 mg flat dose TSR-022 in combination with 500 mg flat dose TSR-042, FIG. 11) | mean occupancy ratio (free TIM-3:total TIM-3) ([5]; 1, 3, 10 mg/kg and flat doses of 100, 300, 1200 mg, over a range of days, FIG. 12) | receptor occupancy on peripheral monocytes versus exposure ([5]; patients, whole blood, FIG. 6B) | day on which receptor occupancy is maximal ([5]; single dose on day 1, across doses 1, 3, 10 mg/kg, FIGS. 7A-7C)
NC(=O)c1cccc2cn(-c3ccc([C@@H]4CCCNC4)cc3)nc12 [Niraparib, (3S)-3-[4-{7-(aminocarbonyl)-2H-indazol-2-yl}phenyl]piperidine] | ~0.004 µM | ~0.05 µM | – | – | – | – | – | – | – | – | – | – | – | – | – | –
TSR-022: humanized monoclonal anti-TIM-3 IgG4 antibody, heavy chain SEQ ID NO: 3, light chain SEQ ID NO: 4, S228 Ser to Pro hinge mutation | – | – | a MTD has not yet been identified | well-tolerated across multiple dose levels | linear PK behavior | 5/25 | 1/25 | 32% | ≥ 29 days | comparable results are obtained | comparable to 3 mg/kg Q2W | achieved at 100 mg for the duration of the dosing interval | high RO can be maintained over the measured time period | high occupancy ratios | correlate with TSR-022 exposure | 3 days
